Experimental data as given in US12247072 (ASHER BIOTHERAPEUTICS, dated 2025).

These binders were tested against Recombinant human IL-21R, extracellular domain fused to 8x Histidine tag (generated in house) (human, UniProt Q9HBE5 20-232) (assay: SPR, 37 C).
Recombinant human IL-21R, extracellular domain fused to 8x Histidine tag (generated in house), sequence (Q9HBE5 other isoform, or with tags, fused parts or gaps limits assumed): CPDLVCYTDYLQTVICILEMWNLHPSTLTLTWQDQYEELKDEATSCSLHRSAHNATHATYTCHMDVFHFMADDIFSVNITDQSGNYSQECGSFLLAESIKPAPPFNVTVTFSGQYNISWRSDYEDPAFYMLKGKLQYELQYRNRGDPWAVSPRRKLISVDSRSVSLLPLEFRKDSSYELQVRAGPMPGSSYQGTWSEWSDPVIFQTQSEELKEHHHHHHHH
Experimental: Protein was not captured on flow cell 1 to serve as a reference surface. A serial dilution was generated for human IL-21R, in HBS-P+ buffer supplemented with 1 g/L BSA, starting at nominal concentrations between 20-5 µM, followed by six to seven 5-fold serial dilutions, and flowed over the surface-captured fusion protein for 2 minutes at 30 µL/min. Buffer was also flowed over the surface to serve as a blank subtraction. Dissociation was monitored for 5-10 minutes, and the anti-hIgG-Fc surface was regenerated with three 30 to 60-seconds injections of 75 mM phosphoric acid before recapturing fusion protein in each subsequent binding cycle. Binding data were double-referenced and analyzed by Biacore® Evaluation Software version 3.2 using steady-state affinity for very weak interactions, or when possible, a 1:1 Langmuir with mass transport model to determine kinetic rate constants (k_a, k_d) and K_D.

Row | Kd | Binder | binding result
1 | 0.42 µM | xhCD8.1-hIL21 v2.58 (other, Human IgG1/kappa, knob-into-hole, L234A/L235A/G237A) VH: QVQLVQSGAEVKKPGSSVKVSCKASGGTFSSYAISWVRQAPGQGLEWMGGIIPGYATANYAQKFQGRVTITADESTSTAYMELSSLRSEDTAVYYCARDAAGIRLFADWGQGTLVTVSS VL: DIQMTQSPSSLSASVGDRVTITCRASQSIYGALNWYQQKPGKAPKLLIYGASNLQSGVPSRFSGSGSGTDFTLTISSLQPEDFATYYCQSTYTAPWTFGGGTKVEIK not shown | –
2 | 0.0669 µM | xhCD8.1-hIL21 v2.38 (other, Human IgG1/kappa, knob-into-hole, L234A/L235A/G237A) VH: QVQLVQSGAEVKKPGSSVKVSCKASGGTFSSYAISWVRQAPGQGLEWMGGIIPGYATANYAQKFQGRVTITADESTSTAYMELSSLRSEDTAVYYCARDAAGIRLFADWGQGTLVTVSS VL: DIQMTQSPSSLSASVGDRVTITCRASQSIYGALNWYQQKPGKAPKLLIYGASNLQSGVPSRFSGSGSGTDFTLTISSLQPEDFATYYCQSTYTAPWTFGGGTKVEIK not shown | –
3 | 0.0034 µM | xhCD8.1-hIL21 v2.31 (other, Human IgG1/kappa, knob-into-hole, L234A/L235A/G237A) VH: QVQLVQSGAEVKKPGSSVKVSCKASGGTFSSYAISWVRQAPGQGLEWMGGIIPGYATANYAQKFQGRVTITADESTSTAYMELSSLRSEDTAVYYCARDAAGIRLFADWGQGTLVTVSS VL: DIQMTQSPSSLSASVGDRVTITCRASQSIYGALNWYQQKPGKAPKLLIYGASNLQSGVPSRFSGSGSGTDFTLTISSLQPEDFATYYCQSTYTAPWTFGGGTKVEIK not shown | –
4 | 0.000419 µM | xhCD8.1-hIL21 v2.30 (other, Human IgG1/kappa, knob-into-hole, L234A/L235A/G237A) VH: QVQLVQSGAEVKKPGSSVKVSCKASGGTFSSYAISWVRQAPGQGLEWMGGIIPGYATANYAQKFQGRVTITADESTSTAYMELSSLRSEDTAVYYCARDAAGIRLFADWGQGTLVTVSS VL: DIQMTQSPSSLSASVGDRVTITCRASQSIYGALNWYQQKPGKAPKLLIYGASNLQSGVPSRFSGSGSGTDFTLTISSLQPEDFATYYCQSTYTAPWTFGGGTKVEIK not shown | –
5 | 0.000693 µM | xhCD8.1-hIL21 v2.28 (other, Human IgG1/kappa, knob-into-hole, L234A/L235A/G237A) VH: QVQLVQSGAEVKKPGSSVKVSCKASGGTFSSYAISWVRQAPGQGLEWMGGIIPGYATANYAQKFQGRVTITADESTSTAYMELSSLRSEDTAVYYCARDAAGIRLFADWGQGTLVTVSS VL: DIQMTQSPSSLSASVGDRVTITCRASQSIYGALNWYQQKPGKAPKLLIYGASNLQSGVPSRFSGSGSGTDFTLTISSLQPEDFATYYCQSTYTAPWTFGGGTKVEIK not shown | –
6 | 0.614 µM | xhCD8.1-hIL21 v2.39 (other, Human IgG1/kappa, knob-into-hole, L234A/L235A/G237A) VH: QVQLVQSGAEVKKPGSSVKVSCKASGGTFSSYAISWVRQAPGQGLEWMGGIIPGYATANYAQKFQGRVTITADESTSTAYMELSSLRSEDTAVYYCARDAAGIRLFADWGQGTLVTVSS VL: DIQMTQSPSSLSASVGDRVTITCRASQSIYGALNWYQQKPGKAPKLLIYGASNLQSGVPSRFSGSGSGTDFTLTISSLQPEDFATYYCQSTYTAPWTFGGGTKVEIK not shown | –

The next lines start with the binder.

Row | Binder | Kd | binding result
7 | xhCD8.1-hIL21 v2.7 (other, Human IgG1/kappa, knob-into-hole, L234A/L235A/G237A) VH: QVQLVQSGAEVKKPGSSVKVSCKASGGTFSSYAISWVRQAPGQGLEWMGGIIPGYATANYAQKFQGRVTITADESTSTAYMELSSLRSEDTAVYYCARDAAGIRLFADWGQGTLVTVSS VL: DIQMTQSPSSLSASVGDRVTITCRASQSIYGALNWYQQKPGKAPKLLIYGASNLQSGVPSRFSGSGSGTDFTLTISSLQPEDFATYYCQSTYTAPWTFGGGTKVEIK not shown | 0.156 µM | –
8 | xhCD8.1-hIL21 v2.41 (other, Human IgG1/kappa, knob-into-hole, L234A/L235A/G237A) VH: QVQLVQSGAEVKKPGSSVKVSCKASGGTFSSYAISWVRQAPGQGLEWMGGIIPGYATANYAQKFQGRVTITADESTSTAYMELSSLRSEDTAVYYCARDAAGIRLFADWGQGTLVTVSS VL: DIQMTQSPSSLSASVGDRVTITCRASQSIYGALNWYQQKPGKAPKLLIYGASNLQSGVPSRFSGSGSGTDFTLTISSLQPEDFATYYCQSTYTAPWTFGGGTKVEIK not shown | 0.104 µM | –
9 | xhCD8.1-hIL21 v2.45 (other, Human IgG1/kappa, knob-into-hole, L234A/L235A/G237A) VH: QVQLVQSGAEVKKPGSSVKVSCKASGGTFSSYAISWVRQAPGQGLEWMGGIIPGYATANYAQKFQGRVTITADESTSTAYMELSSLRSEDTAVYYCARDAAGIRLFADWGQGTLVTVSS VL: DIQMTQSPSSLSASVGDRVTITCRASQSIYGALNWYQQKPGKAPKLLIYGASNLQSGVPSRFSGSGSGTDFTLTISSLQPEDFATYYCQSTYTAPWTFGGGTKVEIK not shown | – | no binding (tested: highest concentration tested)
10 | xhCD8.1-hIL21 v2.42 (other, Human IgG1/kappa, knob-into-hole, L234A/L235A/G237A) VH: QVQLVQSGAEVKKPGSSVKVSCKASGGTFSSYAISWVRQAPGQGLEWMGGIIPGYATANYAQKFQGRVTITADESTSTAYMELSSLRSEDTAVYYCARDAAGIRLFADWGQGTLVTVSS VL: DIQMTQSPSSLSASVGDRVTITCRASQSIYGALNWYQQKPGKAPKLLIYGASNLQSGVPSRFSGSGSGTDFTLTISSLQPEDFATYYCQSTYTAPWTFGGGTKVEIK not shown | – | no binding (tested: highest concentration tested)
11 | xhCD8.1-hIL21 v2.32 (other, Human IgG1/kappa, knob-into-hole, L234A/L235A/G237A) VH: QVQLVQSGAEVKKPGSSVKVSCKASGGTFSSYAISWVRQAPGQGLEWMGGIIPGYATANYAQKFQGRVTITADESTSTAYMELSSLRSEDTAVYYCARDAAGIRLFADWGQGTLVTVSS VL: DIQMTQSPSSLSASVGDRVTITCRASQSIYGALNWYQQKPGKAPKLLIYGASNLQSGVPSRFSGSGSGTDFTLTISSLQPEDFATYYCQSTYTAPWTFGGGTKVEIK not shown | 0.000236 µM | –
12 | xhCD8.1-hIL21 v2.40 (other, Human IgG1/kappa, knob-into-hole, L234A/L235A/G237A) VH: QVQLVQSGAEVKKPGSSVKVSCKASGGTFSSYAISWVRQAPGQGLEWMGGIIPGYATANYAQKFQGRVTITADESTSTAYMELSSLRSEDTAVYYCARDAAGIRLFADWGQGTLVTVSS VL: DIQMTQSPSSLSASVGDRVTITCRASQSIYGALNWYQQKPGKAPKLLIYGASNLQSGVPSRFSGSGSGTDFTLTISSLQPEDFATYYCQSTYTAPWTFGGGTKVEIK not shown | 0.0547 µM | –
13 | xhCD8.1-hIL21 v2.29 (other, Human IgG1/kappa, knob-into-hole, L234A/L235A/G237A) VH: QVQLVQSGAEVKKPGSSVKVSCKASGGTFSSYAISWVRQAPGQGLEWMGGIIPGYATANYAQKFQGRVTITADESTSTAYMELSSLRSEDTAVYYCARDAAGIRLFADWGQGTLVTVSS VL: DIQMTQSPSSLSASVGDRVTITCRASQSIYGALNWYQQKPGKAPKLLIYGASNLQSGVPSRFSGSGSGTDFTLTISSLQPEDFATYYCQSTYTAPWTFGGGTKVEIK not shown | 0.0028 µM | –
14 | xhCD8.1-hIL21 v2.9 (other, Human IgG1/kappa, knob-into-hole, L234A/L235A/G237A) VH: QVQLVQSGAEVKKPGSSVKVSCKASGGTFSSYAISWVRQAPGQGLEWMGGIIPGYATANYAQKFQGRVTITADESTSTAYMELSSLRSEDTAVYYCARDAAGIRLFADWGQGTLVTVSS VL: DIQMTQSPSSLSASVGDRVTITCRASQSIYGALNWYQQKPGKAPKLLIYGASNLQSGVPSRFSGSGSGTDFTLTISSLQPEDFATYYCQSTYTAPWTFGGGTKVEIK not shown | 0.42 µM | –
15 | xhCD8.1-hIL21 v2.33 (other, Human IgG1/kappa, knob-into-hole, L234A/L235A/G237A) VH: QVQLVQSGAEVKKPGSSVKVSCKASGGTFSSYAISWVRQAPGQGLEWMGGIIPGYATANYAQKFQGRVTITADESTSTAYMELSSLRSEDTAVYYCARDAAGIRLFADWGQGTLVTVSS VL: DIQMTQSPSSLSASVGDRVTITCRASQSIYGALNWYQQKPGKAPKLLIYGASNLQSGVPSRFSGSGSGTDFTLTISSLQPEDFATYYCQSTYTAPWTFGGGTKVEIK not shown | 0.0013 µM | –
16 | xhCD8.1-hIL21 v2.43 (other, Human IgG1/kappa, knob-into-hole, L234A/L235A/G237A) VH: QVQLVQSGAEVKKPGSSVKVSCKASGGTFSSYAISWVRQAPGQGLEWMGGIIPGYATANYAQKFQGRVTITADESTSTAYMELSSLRSEDTAVYYCARDAAGIRLFADWGQGTLVTVSS VL: DIQMTQSPSSLSASVGDRVTITCRASQSIYGALNWYQQKPGKAPKLLIYGASNLQSGVPSRFSGSGSGTDFTLTISSLQPEDFATYYCQSTYTAPWTFGGGTKVEIK not shown | – | no binding (tested: highest concentration tested)
17 | xhCD8.1-hIL21 v2.20 (other, Human IgG1/kappa, knob-into-hole, L234A/L235A/G237A) VH: QVQLVQSGAEVKKPGSSVKVSCKASGGTFSSYAISWVRQAPGQGLEWMGGIIPGYATANYAQKFQGRVTITADESTSTAYMELSSLRSEDTAVYYCARDAAGIRLFADWGQGTLVTVSS VL: DIQMTQSPSSLSASVGDRVTITCRASQSIYGALNWYQQKPGKAPKLLIYGASNLQSGVPSRFSGSGSGTDFTLTISSLQPEDFATYYCQSTYTAPWTFGGGTKVEIK not shown | – | no binding (tested: highest concentration tested)
18 | xhCD8.1-hIL21 v2.46 (other, Human IgG1/kappa, knob-into-hole, L234A/L235A/G237A) VH: QVQLVQSGAEVKKPGSSVKVSCKASGGTFSSYAISWVRQAPGQGLEWMGGIIPGYATANYAQKFQGRVTITADESTSTAYMELSSLRSEDTAVYYCARDAAGIRLFADWGQGTLVTVSS VL: DIQMTQSPSSLSASVGDRVTITCRASQSIYGALNWYQQKPGKAPKLLIYGASNLQSGVPSRFSGSGSGTDFTLTISSLQPEDFATYYCQSTYTAPWTFGGGTKVEIK not shown | – | no binding (tested: highest concentration tested)
19 | xhCD8.1-hIL21 v2.36 (other, Human IgG1/kappa, knob-into-hole, L234A/L235A/G237A) VH: QVQLVQSGAEVKKPGSSVKVSCKASGGTFSSYAISWVRQAPGQGLEWMGGIIPGYATANYAQKFQGRVTITADESTSTAYMELSSLRSEDTAVYYCARDAAGIRLFADWGQGTLVTVSS VL: DIQMTQSPSSLSASVGDRVTITCRASQSIYGALNWYQQKPGKAPKLLIYGASNLQSGVPSRFSGSGSGTDFTLTISSLQPEDFATYYCQSTYTAPWTFGGGTKVEIK not shown | 0.125 µM | –
20 | xhCD8.1-hIL21 v2.34 (other, Human IgG1/kappa, knob-into-hole, L234A/L235A/G237A) VH: QVQLVQSGAEVKKPGSSVKVSCKASGGTFSSYAISWVRQAPGQGLEWMGGIIPGYATANYAQKFQGRVTITADESTSTAYMELSSLRSEDTAVYYCARDAAGIRLFADWGQGTLVTVSS VL: DIQMTQSPSSLSASVGDRVTITCRASQSIYGALNWYQQKPGKAPKLLIYGASNLQSGVPSRFSGSGSGTDFTLTISSLQPEDFATYYCQSTYTAPWTFGGGTKVEIK not shown | 0.002 µM | –
21 | xhCD8.1-hIL21 v2.37 (other, Human IgG1/kappa, knob-into-hole, L234A/L235A/G237A) VH: QVQLVQSGAEVKKPGSSVKVSCKASGGTFSSYAISWVRQAPGQGLEWMGGIIPGYATANYAQKFQGRVTITADESTSTAYMELSSLRSEDTAVYYCARDAAGIRLFADWGQGTLVTVSS VL: DIQMTQSPSSLSASVGDRVTITCRASQSIYGALNWYQQKPGKAPKLLIYGASNLQSGVPSRFSGSGSGTDFTLTISSLQPEDFATYYCQSTYTAPWTFGGGTKVEIK not shown | 0.601 µM | –
